Measurements taken from patent US12551573B2, “Compositions and methods for the targeting of PCSK9” (Scribe Therapeutics Inc., priority 2022, dated 2026).
Numbering of substitutions follows the chain as printed.

B1: DOMAIN_14983 (protein, listed as Rhinopithecus roxellana)
chain: MAFEDVAVYFSQEEWGLLDTAQRALYRRVMLDNFALVASLGLSTSRPRVVIQLERGEEPWVPSGTDTVLSRNTYRRRNPGS
B2: DOMAIN_15138 (protein)
chain: CEGSVSFEDVTMDFSREEWQQLDPAQRCLYQDVMLEIYSHLLFVGYNIPNPEIISRMEKGEEPWMREVQLPHQRHRERAFG
modifications: Vulpes vulpes
B3: DOMAIN_15089 (protein)
chain: SQELVAFEDVLVDFTPEEWQYLNSSQKTLYREVMLETYSNLVSVAGQQDTKPDLILKLELEGPCLAERKISVWSFPEEACQ
modifications: Vulpes vulpes
B4: DOMAIN_14714 (protein, listed as Odocoileus virginianus)
chain: PQESVTFEDVAVNFSYEEWQCLTHAQRHLYTDVMLENYGNMVSLGFSFSKPPLISRLEQGTEPYVQDRQDWEFLNCSYPAA
B5: DOMAIN_15184 (protein, listed as Acinonyx jubatus)
chain: ASVVFEDVAVNFTPEEWALLNPGQRKLYRDVMLETCRNLSAVGCRSQGNTSTPRPQWSILLNEPPGEDKTGIFTRKDSCSV
B6: DOMAIN_14546 (protein)
chain: GLLSFEDVALYFTREEWDTLDWAQKALYRDVMLDNYRHIVSLGFPFPKPEVICQLEQWEEPWILDLPRAGTRKASGSACPD
modifications: Muntiacus muntjak
B7: DOMAIN_14946 (protein, listed as Acinonyx jubatus)
chain: LQVSVSFEDVTVNFSREEWQRLDPAQRRLYRDVTLENYSHLRSVGYQVPKPEVIFKLEQGEGPWTLEGETPHQSCSGEDIG
B8: DOMAIN_14746 (protein, listed as Odocoileus virginianus)
chain: VTELLTFKDISVDFTQEEWGQLAPAHRNLYREVMLENYGNLVSVAGCQLSKPSVISQLEKGEEPWMTEKEGAGDPSSDLKS
B9: DOMAIN_13691 (protein, listed as Sapajus apella)
chain: AQESVTFEDVAVNFTDREWQCLTYAQRHLYKDVMLENYGNMVSVGFLFPKPPLISHLERGVEPCVQDPQDRESLSCSCLVS
B10: DOMAIN_14082 (protein)
chain: SPTLVTFKDIHVNFTREEWNLLDAAQQIMYKDVMLENYKNLVSVGHQLPKPDVILQLEKGEEPWLVERGVRQDTRPDWDTA
modifications: Phyllostomus discolor
B11: DOMAIN_14287 (protein, listed as Bos indicus)
chain: VQGSVSFEDVAVGFSQEEWQILGPSQKALYWDVMLENYCNLVSVGYQAPTPNSLFQLEQGGPPWTVEGAALSPTCSGKKLY
B12: DOMAIN_15227 (protein, listed as Rhinopithecus roxellana)
chain: MAFEDVAVYFSQEEWGLLDTAQRALYRHVMLDNFTLVTSLGLSTSRPHVVIQLERGEEPWVPSGKDMTLARNTYRRLNAGE
B13: DOMAIN_16688 (protein)
chain: SQEQVSFKDVCVDFTREEWYLLDPAQKILYRDVILENYSHLVSVGNCITKPEVIFKIEQGEEPWILEERFPKQCCSERNWK
modifications: Lipotes vexillifer
B14: DOMAIN_17317 (protein, listed as Otolemur garnettii)
chain: SQASVSFKDVNVEFTQDEWQQMGPAQRNLYRDVMLENYSNLVSVGYCIFKPKVIFRLEQGEEPWSSEEEFSSQRRPKNYRD
B15: DOMAIN_18563 (protein, listed as Aotus trivirgatus)
chain: IQGQVNFEDVFVYFSQEEWVLLDEAQRLLYRDVMLENFALMASLGHTSFTSHTVASLVMGPDWVDVTPAVATGTLSGSGPG
B16: DOMAIN_12231 (protein)
chain: PQESVAFEDVAVYFTAKEWDIMVPAERALYRDVMLENYEAVAFVVPPTSKPALVSHLEQGKESCFTRPQGVLCRNDWRAGL
modifications: Nomascus leucogenys
B17: DOMAIN_13277 (protein, listed as Macaca fascicularis)
chain: MTFEDVSVEFTQGEWGQLNPAQKDLYREVMLENFRNLAFLGLPVSKPYVICQLEEGGEPFIVEREVSTGAYSDWERRSKSK
B18: DOMAIN_12206 (protein, listed as Bos mutus)
chain: QEQVSFKDVCVDFTQEEWYLLDPAQKILYRDVILENYSHLVSVGNCITKPEVIFKIEQGEEPWILEERFPKQWHSGKSYKY
B19: DOMAIN_12285 (protein, listed as Gorilla sp.)
chain: EPGAVSFADVAVYFCREEWGCLRPAQRTLYRDVMRETYGHLSALGIGGKKPALISWVEEEAELWGPAAQDPEVAKCPTQTD
B20: DOMAIN_12912 (protein)
chain: B7 chain with R21H
modifications: Puma concolor
B21: DOMAIN_13269 (protein, listed as Desmodus rotundus)
chain: B7 chain with N13D, R21H, R31W, R42L, F55L, G77D
B22: DOMAIN_12755 (protein, listed as Oryctolagus cuniculus)
chain: SLGPVSFKDVAVGFTQEEWRQLEPAQRRTYREVMLENYSHLVAVGCHFIKPDVITKLERGEEPWIEGGFLPQGCADEVWQA
B23: DOMAIN_12550 (protein, listed as Ailuropoda melanoleuca)
chain: SDEAFSFEDLSVDFTQKEWQLLNPGQKDLYKDVMLENYSSLVSLGYEIMKPDVIFKLEQGEEPWIGDGEVPSSGCPADMSY
B24: DOMAIN_13121 (protein, listed as Macaca fascicularis)
chain: GKELLSFEDVAMYFTREEWGRLDWGQKDLYRDVMLENYRNMVLLGFQFPKPEVICQLENWDEQWILDLPRAGSRKASGSAC
B25: DOMAIN_12896 (protein, listed as Macaca fascicularis)
chain: DTVVFEDVVVGFTLEEWALLNPAQRNLYREVMLETFKHLASVDNEAQPKTNGSISQQDTSGEKLSLKQKIEKFTRKHTWAS
B26: DOMAIN_12590 (protein, listed as Bos indicus)
chain: AQEPVTFNDVAVDFTQEEWGQLDLVQRTLYRDVMLETYGHLLSVGNQITKPEVISLLEQGEEPWSMEPAYPLQGTCPAPEI
B27: DOMAIN_12901 (protein, listed as Macaca fascicularis)
chain: B12 chain with D32E

What follows are molecules tested on HBEGF locus. Conditions: high-throughput screen of dXR repression of the HBEGF gene; abundance of each domain in the library before and after diphtheria toxin selection; HEK293T cells.
Assay type: cell-based, human

Row | Molecule | Log2 (fold change)
1 | B1 | 3.704
2 | B2 | 3.1771
3 | B3 | 2.3585
4 | B4 | 3.2752
5 | B5 | 3.0092
6 | B6 | 3.5039
7 | B7 | 3.2842
8 | B8 | 2.605
9 | B9 | 2.6205
10 | B10 | 3.2495
11 | B11 | 3.6232
12 | B12 | 3.5532

Same assay, conditions: high-throughput screen of dXR repression of the HBEGF gene; change in abundance of each domain in the library before and after diphtheria toxin selection

Row | Molecule | Log2 (fold change)
13 | B13 | 3.5601
14 | B14 | 3.4551
15 | B15 | 3.0406

Same assay, conditions: repressor domain in dXR, repression of the HBEGF gene; abundance of domain in library after vs before diphtheria toxin selection

Row | Molecule | Log2 (fold change)
16 | B16 | 2.6703
17 | B17 | 2.9151
18 | B18 | 2.9101
19 | B19 | 2.2573
20 | B20 | 2.7422
21 | B21 | 2.7236
22 | B22 | 2.8082
23 | B23 | 3.0229
24 | B24 | 3.353
25 | B25 | 2.0413
26 | B26 | 2.5531
27 | B27 | 3.5686
